Reference: US20140289906A1, “Compositions Having Dicamba Decarboxylase Activity and Methods of Use” (priority 2013, published 2014)

Assay: 14C assay: 14CO2 capture from [14C]-carboxyl-labeled dicamba with IPTG-induced recombinant E. coli cells
Conditions: for Dicamba Decarboxylase Activity: IPTG-induced recombinant E. coli cells, 14CO2 from [14C]-carboxyl-labeled dicamba; for Enzymatic Detection level: dicamba decarboxylation activity

Row | Molecule | Dicamba Decarboxylase Activity | Enzymatic Detection level
1 | 107 (protein, listed as Rhodopseudomonas palustris) MAIIDIHGHYTTAPKALEDWRNRQIAGIKDPSVMPKVSELKISDDELQASIIENQLKKMQERGSDLTVFSPRASFMAHHIGDFNVSSTWAAICNELCYRVSQLFPDNFIGAAMLPQSPGVDPKTCIPELEKCVKEYGFVAINLNPDPSGGHWTSPPLTDRIWYPIYEKMVELEIPAMIHVSTSCNTCFHTTGAHYLNADTTAFMQCVAGDLFKDFPELKFVIPHGGGAVPYHWGRFRGLAQEMKKPLLEDHVLNNIFFDTCVYHQPGIDLLNTVIPVDNVLFASEMIGAVRGIDPRTGFYYDDTKRYIEASTILTPEEKQQIYEGNARRVYPRLDAALKAKGK | No | No
2 | 9 (protein, listed as Octadecabacter antarcticus) MATPKITFEEHFMAPGFEKHSEAFLKLIPRDQAEILTRRLGDFDGERIETMDRGGITRSIISLTGPGTQGEAVEKAVSAAQGANDFLAEKISKKPDRLGGLATLPMHDPDAAARELNRAVNDLGLQGCLVNTHTHGAYYEGTDYDPFWAEVEKLGVPFYLHPSNAYVTPHVLGGMPVLQGATWGWGVETGSHALRILFGGVFDRFPDVKLVLGHMGEALPFLRWRYDSRFGAYPMGVSLDRAPSAYFGSNILITTSGVCSHPSLIGAIGEMGADAVMFSVDYPYEDTDLAVEFIETAPLEDATRVKICHDNAARLFGMPTLAAKEGA | No | No
3 | 10 (protein, listed as Starkeya novella) MARKIALEEHFTTPELAGKYVARPTQSDALFADIERRLADFDELRLEMMDRAEIDLMVLSVTTPGVQGVRDTGEAIRLARGANDFLAREVQKRPSRYAGFAHLAMQDAEAAATELERAVRELGFRGALINGQTNGHYLDEDQYAPFWERVQELDVPVYLHPGNMADSPAMFAHRPELGGPIWAWTAETAAHALRLVFGGTFTRFPGAKVILGHMGETLPFLLWRLDSRREFDLGEKLAPDALPSAIIKRNIAVTTSGVCDPAPLVAALQALSDDNVMFSVDYPYEDPQLASKFIETAPIGEETRAKVCHGNAERLLGL | Low | Low
4 | 11 (protein, Aspergillus niger) MALGKIALEEAFALPRFEEKTRWWASLFSVDPETHVKEITDINKLRIEHADKYGVGYQILSYTAPGVQDIWDPVEAQALAVEINDYIAEQIRDKPDRFGAFATLSMHNPQEAASELRRCVQTYGFKGALVNDTQRAGPDGDDMIFYDNASWDIFWQTCTELDVPLYLHPRNPTGTIYEKLWADRKWLVGPPLSFAQGVSLHVLGMVTNGVFDRHPNLQLIMGHLGEHVPFDMWRINHWFEDRKKLLGLAETCKKTIREYFAQNIWITTSGHFSTTTLNFCMAEVGVDRILFSIDYPFETFEDACVWFDGAELNLSDKAKIGRDNAARLFKLGAFRDYDAKVKA | Low | Low
5 | 12 (protein, listed as Zymoseptoria tritici) MALGKVAFEEAFALPRFKERTTWWAGLFAVDPEKHTREINDINKLRIEKMDQFGVGYTLLSYTAPGVQDVWQQEEADALAREVNDHVAAEIKGHEDRLGALATLSMHDPQTASAELRRCIKDYGFKGALVNDTQRNDESGTGMIFYDGPEWDVFWSTVQELDVPFYLHPRNPTGVFMEKLWAPRKWLVGPPLSFAQGVSLHLLGMVTNGTFDRFPNLQVIIGHLGEHLPFDLWRINHWFEDIKKPLGLDCKKTIREYFNENIWITTSGHFSTPTLEYCIKEIGAERILFSIDYPFEKFEDACDWYDGVELDGPDTVKKIGRENAKKLFKLGAFKDDSA | No | No
6 | 13 (protein, listed as Metarhizium acridum) MAHGKVALEEAFALPRLHEKTRWWASLFAVNPDKHAAEMTDITDIRINYMDKHGVGYTILSYTAPGVQDISDPKEAQALAVEINDYVAGAIKNHPDRFGAFATLSMRNPQEAATELKRCVTQYGFKGALVNDTQRAGEDDMIFYDGPEWDVFWSTVEELDVPFYLHPRNPTGSLYEKLWAKRKWLVGPPLSFAQGVSLHVLGMVTNGVFDRHPKLQVVLGHLGEHIPFDMWRINHWFEDVKKPLGLDCKKTIREYFQQNIWITTSGHFSTTTLQFCMAEVGADRILFSIDYPFECFADACDWYDGVPINLVDKAKIGRDNARRLFKLPEFKDSEKHVDA | No | No
7 | 14 (protein, listed as Talaromyces marneffei) MARGKVSFEEAYEIPALADKSREQAALYIAPKDLDRYLSEIKSPTGGRLDISNKNGIGYTIYSLTVPGVQGIADKAKAEKHATDVNNWIYNEIKDHRDRMGAFAALSMHDPVQAGQELERCVKKLGFHGALLNNWQHAGTDGETYIFYDHPSYDVFWQKCVELDVPVYLHPSAPSGKVFDTFFKDRRYLIGPPISFAQDVALHTMGLITNGVFDRNPKLKLILGHLGERIPQDLWRTNHWLEDVERPLADSRGDTMSRKPLLYYFKNNIYVTTSGHFSTETVKFVCDYFGADRILFSVDSPYEKIEEGAGWYDKDKDNLTKALGGPQQYLDVGRENAKKLFKLGKYHDCDA | Low | Low
8 | 15 (protein, listed as Metarhizium anisopliae) MAQEIAKSHETSTRFAGFAVLPMRDPEAAAKELERAVKKLGFVGALVDHKTAHGNGFCEGNEYDVLWRKAEQLAVPIYLHPSWPTEKQFQQAYAGNYSPTAAGTIGGAMFNWHSEVGHHVLRLYAAGVFDKFPKLKIIIGHFGEMIPYMLDRIREQDHRLGKTGRTFSEVYDENIWITTSGVWSLDPMRCILANTKIDHILYSVDYPFTMNERGLEWFQELEKSGLLSEEDLALIAYKNCEKLLGVKAPTQD | Low | Low
9 | 17 (protein, Aspergillus niger) MARGKIALEEAFEVKGMDEEIDAQAALYIAPKDVERYKRQIVSITDERLQLSDQNGIGYSILSLTVPGIQGITDKDKAEKRARDVNNYIHDQIKDHRDRLGAFAALSMHDPRQAGHELRRCVKELGFHGALLNDVQHTGEGDDDQPLFYDQPDYDEFWRVAVELDVPVYLHPAAPLRDTLIYKQSYEDRKYLVGPPQSYCNGVALHLMGIIVNGVFDRFPNLKVIVGHMGERIPFDFWRMDHWVKGVTRPLAEKNGDTVCQKEPLYYFKRNIYITTSGHFSTQNLRYLYEWLGDERMMFSVDFPYERMEHGCQWYDDDAEKIKEALGGRDGYLRVGRDNARRLFKLTKFKDCDAV | Low | Low
10 | 18 (protein, listed as Legionella pneumophila) MAIVDFETHFITEACIDYLTQRQEVPKLVPELNGAYTMCFTPDVSLFHTSALMEELLSLNEQRLAIMDQAGVTIQVLSLTTINGIDSCPGDENKSTALAREVNDQLYSAIQKHPERFKGFASISPYDVKEGVKELERAISQLGFVGWLTHSNFGQDNYLDDKIYWPLLEAAESLNIPIYLHPNVPIMREFGKYGFALGGSALGFEFDTALCLMRMILGGVFDAFPKLKIMLGHLGETMPFLMERLDHLYRIPDLKPYRPSIQRIPSEVLRQNVYITTSGRFFVPALRYVLEVMGEDRVLFASDYPMESLLDATRFIQDSDLSNQTKQKIFSINAKNLNLI | Low | Low
11 | 20 (protein, listed as Legionella pneumophila) MAIVDFETHFITEACIDYLTQRQEVPKLVPDLNGAYTMCFTPDVSLFHTSALMEELLSLNEQRLAIMDQAGVTIQVLSLTTINGIDSCPGDENKSTALAREVNDQLYSAIQRHPERFKGFASISPYDVKEGVKELERAISQLGFVGWLTHSNFGQDNYLDDKTYWPLLEAAEGLNIPIYLHPNVPIMREFGKYGFALGGSALGFEFDTALCLMRMILGGVFDAFPKLKIMLGHLGETMPFLMERLDHLYRIPDLKAYRPSIQRIPSEVLRQNVYITTSGRFFVPALRYVLEVMGEDRVLFASDYPMESLLDATRFIQDSDLSNQTKQKIFSINAKNLNLI | Low | Low
12 | 23 (protein, listed as Aplysina aerophoba) MAIDIDARSQPGLETARRAMSRRDFLGGAAAFGITAAATTALPASTAAGEEEDLFLLGLEEHFATAELRRLNGIQFPQGTPRFDINDVGAGRIADMDAAGIDIQVLSALTPGAQNLPGAEGVAYARRLNSWVAHEVIPAYPGRFRAFATLPLSEPQAAADELEYAVRELGFLGCMTYGAVDGKFLDHADFVPVLARAETLDVPIYIHPNWASPQVMDTYYNGLGNEWVSRVLSGAGYGWHQEVALQCLRMIASGVFDRFPRLQIIVGHMGEGLPFFYWRFGDDLARITADTLEKPVQQYFHDNFWITTSAFFRDELLRLVLSVMGEDRVMFAVDYPFVSNKVGADWFRAVDLPRNVKEKIAHKNAERLLKIGPF | Low | Low
13 | 24 (protein, Aspergillus niger) MALGKVVLEEAYERPNMKEKSNHEAGLYIAPNDRPRYMRQINDINQERLKLADAHGVGYTIISLTVPGIQGIFDKTEAERVATETNNWAAEQIKNHRDRLGAFACLSMHDPAQAANELRRCVQELGFHGALLCSFQHAGPDGETYLFYDQPKYDVFWKALTELDVPLYIHPAAPTGSILERLYAQRPALIGPPLSFANDVSLHTLGIISNGVFDRFPNLKIIIGHLGEHIPFDFWRIDHWFRDVKKPIADEEGRVMAQKSLYHYFKHNIWLTTSGHFSTPTLKYVVNEIGVDRVLFSVDYPYETTESGCNWWDHDKDAIVEAVGGVDNYYAIGRENAKKLLRLDKFHDSDAR | Low | Low
14 | 25 (protein, listed as Acidovorax avenae) MAQGKIGLEEHFAIPETLQDSAGFVPGDYWKELSLRLLDIHERRLREMDENGMEMMILSLNAPAVQAIPDTKKAVEIAVRANDFLAEQVARRPDRFQAFAALPMQDPDLATRELERCMQDLGFRGALVNGFSQVGTPENVVYYDAPQYGDFWAAVERLDAPFYLHPRNPIASWAQIYQGHPWLMGPTWAFAQETAVHALRLMASGLFDRHPGLRIILGHLGEGLPYNMWRVDHRNAWVDMPKGYPAKRKLCDYFHENFYLTTSGNFRTQTLIDALLEVGADRILFSTDWPFENVDHAAHWFDDAAISEADRLKIGRTNALSLFKLPQG | Low | Low
15 | 27 (protein, listed as Aspergillus oryzae) MALGKIALEEAFALPRFEEKTRWWASLFSTDAETHVKEITDINKIRIEHADKHGVGYQILSYTAPGVQDIWDPVEAQALAVEINDYIAEQVRVNPDRFGAFATLSMHNPKEAADELRRCVEKYGFKGALVNDTQRAGPDGDDMIFYDNADWDIFWQTCTELDVPFYMHPRNPTGTIYEKLWADRKWLVGPPLSFAHGVSLHVLGMVTNGVFDRHPKLQIIMGHLGEHVPFDMWRINHWFEDRKKLLGLAETCKKTIRDYFAENIWITTSGHFSTTTLNFCMAEVGSDRILFSIDYPFETFSDACEWFDNAELNGTDRLKIGRENAKKLFKLDSYKDSSA | No | No
